# Experimental data as given in patent US20190321478A1 (published 2019).
# T1: TMEM175 (peptide code TMEM175-001) peptide on HLA-A*02:01 (human)
# T1 peptide: ILLPYVSKV
# T2: KIAA103 (peptide code KIAA103-002) peptide on HLA-A*02:01 (human)
# T2 peptide: KVLNKVITV
# T3: RASAL2 (peptide code RASAL2-002) peptide on HLA-A*02:01 (human)
# T3 peptide: SVLEPVISV
# T4: PTRF (peptide code PTRF-001) peptide on HLA-A*02:01 (human)
# T4 peptide: KLLEKVRKV
# T5: NSD1 (peptide code NSD1-001) peptide on HLA-A*02:01 (human)
# T5 peptide: KVQEQVHKV
# T6: GALNTL4 (peptide code GALNTL4-001) peptide on HLA-A*02:01 (human)
# T6 peptide: KLTEYVDKV
# T7: TBC1D9 (peptide code TBC1D9-002) peptide on HLA-A*02:01 (human)
# T7 peptide: LLLPDVIKV
# T8: EPAS (peptide code EPAS-001) peptide on HLA-A*02:01 (human)
# T8 peptide: KALEGFIAV
# T9: TMTC4 (peptide code TMTC4-001) peptide on HLA-A*02:01 (human)
# T9 peptide: NVLEIVQKV
# T10: PSME2 (peptide code PSME2-001) peptide on HLA-A*02:01 (human)
# T10 peptide: KVLERVNAV
# T11: MAGEA1 (peptide MAGEA1-003) peptide on HLA-A*02:01 (human)
# T11 peptide: KVLEYVIKV
# B1: R42P3A9 (TCR, V domains shown)
# Valpha: GIQVEQSPPDLILQEGANSTLRCNFSDSVNNLQWFHQNPWGQLINLFYIPSGTKQNGRLSATTVATERYSLLYISSSQTTDSGVYFCAVHNFNKFYFGSGTKLNVKP
# Vbeta: AAGVIQSPRHLIKEKRETATLKCYPIPRHDTVYWYQQGPGQDPQFLISFYEKMQSDKGSIPDRFSAQQFSDYHSELNMSSLELGDSALYFCASSLLGQGYNEQFFGPGTRLTVL
# B2: R26P3H1 (TCR, V domains shown)
# Valpha: AQSVAQPEDQVNVAEGNPLTVKCTYSVSGNPYLFWYVQYPNRGLQFLLKYITGDNLVKGSYGFEAEFNKSQTSFHLKKPSALVSDSALYFCAVRDMNRDDKIIFGKGTRLHILP
# Vbeta: DGGITQSPKYLFRKEGQNVTLSCEQNLNHDAMYWYRQDPGQGLRLIYYSQIVNDFQKGDIAEGYSVSREKKESFPLTVTSAQKNPTAFYLCASSRAEGGEQYFGPGTRLTVT
# B3: R37P1H1 (TCR, V domains shown)
# Valpha: AQTVTQSQPEMSVQEAETVTLSCTYDTSESNYYLFWYKQPPSRQMILVIRQEAYKQQNATENRFSVNFQKAAKSFSLKISDSQLGDTAMYFCAFGYSGGGADGLTFGKGTHLIIQP
# Vbeta: DAGVTQSPTHLIKTRGQQVTLRCSPKSGHDTVSWYQQALGQGPQFIFQYYEEEERQRGNFPDRFSGHQFPNYSSELNVNALLLGDSALYLCASSNEGQGWEAEAFFGQGTRLTVV
# B4: R26P2A6 (TCR, V domains shown)
# Valpha: QKEVEQDPGPLSVPEGAIVSLNCTYSNSAFQYFMWYRQYSRKGPELLMYTYSSGNKEDGRFTAQVDKSSKYISLFIRDSQPSDSATYLCAMSDVSGGYNKLIFGAGTRLAVHP
# Vbeta: EAQVTQNPRYLITVTGKKLTVTCSQNMNHEYMSWYRQDPGLGLRQIYYSMNVEVTDKGDVPEGYKVSRKEKRNFPLILESPSPNQTSLYFCASTTPDGTDEQFFGPGTRLTVL
# B5: R59P2E7 (TCR, V domains shown)
# Valpha: KQEVTQIPAALSVPEGENLVLNCSFTDSAIYNLQWFRQDPGKGLTSLLLIQSSQREQTSGRLNASLDKSSGRSTLYIAASQPGDSATYLCAVNSDYKLSFGAGTTVTVRA
# Vbeta: AAGVIQSPRHLIKEKRETATLKCYPIPRHDTVYWYQQGPGQDPQFLISFYEKMQSDKGSIPDRFSAQQFSDYHSELNMSSLELGDSALYFCASSLGLGTGDYGYTFGSGTRLTVV
# B6: R26P1A9 (TCR, V domains shown)
# Valpha: SQQGEEDPQALSIQEGENATMNCSYKTSINNLQWYRQNSGRGLVHLILIRSNEREKHSGRLRVTLDTSKKSSSLLITASRAADTASYFCLIGASGSRLTFGEGTQLTVNP
# Vbeta: DAGVIQSPRHEVTEMGQEVTLRCKPISGHDYLFWYRQTMMRGLELLIYFNNNVPIDDSGMPEDRFSAKMPNASFSTLKIQPSEPRDSAVYFCASSYFGWNEKLFFGSGTQLSVL
# Biological target: T1, TMEM175 (peptide code TMEM175-001) …
# Experiment: cytokine release
row,Binder,binding result
1,B1,no recognition
2,B2,no recognition
3,B3,no recognition
4,B4,no recognition
5,B5,no recognition
6,B6,no recognition

# Biological target: T2, KIAA103 (peptide code KIAA103-002) …
# Experiment: cytokine release
row,Binder,binding result
1,B1,no recognition
2,B2,no recognition
3,B3,no recognition
4,B4,no recognition
5,B5,no recognition
6,B6,no recognition

# Biological target: T3, RASAL2 (peptide code RASAL2-002) …
# Experiment: cytokine release
row,Binder,binding result
1,B1,no recognition
2,B2,no recognition
3,B3,no recognition
4,B4,no recognition
5,B5,no recognition
6,B6,no recognition

# Biological target: T4, PTRF (peptide code PTRF-001) peptide on …
# Experiment: cytokine release
row,Binder,binding result
1,B1,no recognition
2,B2,no recognition
3,B3,no recognition
4,B4,no recognition
5,B5,no recognition
6,B6,no recognition

# Biological target: T5, NSD1 (peptide code NSD1-001) peptide on …
# Experiment: cytokine release
row,Binder,binding result
1,B1,no recognition
2,B2,no recognition
3,B3,no recognition
4,B4,no recognition
5,B5,no recognition
6,B6,no recognition

# Biological target: T6, GALNTL4 (peptide code GALNTL4-001) …
# Experiment: cytokine release
row,Binder,binding result
1,B1,no recognition
2,B2,no recognition
3,B3,no recognition
4,B4,no recognition
5,B5,no recognition
6,B6,no recognition

# Biological target: T7, TBC1D9 (peptide code TBC1D9-002) …
# Experiment: cytokine release
row,Binder,binding result
1,B1,no recognition
2,B2,no recognition
3,B3,no recognition
4,B4,no recognition
5,B5,no recognition
6,B6,no recognition

# Biological target: T8, EPAS (peptide code EPAS-001) peptide on …
# Experiment: cytokine release
row,Binder,binding result
1,B1,no recognition
2,B2,no recognition
3,B3,no recognition
4,B4,no recognition
5,B5,no recognition
6,B6,no recognition

# Biological target: T9, TMTC4 (peptide code TMTC4-001) peptide …
# Experiment: cytokine release
row,Binder,binding result
1,B1,no recognition
2,B2,no recognition
3,B3,no recognition
4,B4,no recognition
5,B5,no recognition
6,B6,no recognition

# Biological target: T10, PSME2 (peptide code PSME2-001) peptide …
# Experiment: cytokine release
row,Binder,binding result
1,B1,no recognition
2,B2,no recognition
3,B3,no recognition
4,B4,no recognition
5,B5,no recognition
6,B6,no recognition

# Biological target: T11, MAGEA1 (peptide MAGEA1-003) peptide on …
# Experiment: multimer staining
row,Binder,binding result
1,B1,recognises
2,B2,recognises
3,B3,recognises
4,B4,recognises
5,B5,recognises
6,B6,recognises
